These results are taken from IntAct's records for PubMed 17347647.

The labels stand for the following.
B1: Rho GTPase-activating protein 21 (Homo sapiens), Q5T5U3 (parent)
chain: MMATRRTGLSEGDGDKLKACEVSKNKDGKEQSETVSLSEDETFSWPGPKTVTLKRTSQGFGFTLRHFIVYPPESAIQFSYKDEENGNRGGKQRNRLEPMDTIFVKQVKEGGPAFEAGLCTGDRIIKVNGESVIGKTYSQVIALIQNSDTTLELSVMPKDEDILQVLQFTKDVTALAYSQDAYLKGNEAYSGNARNIPEPPPICYPWLPSAPSAMAQPVEISPPDSSLSKQQTSTPVLTQPGRAYRMEIQVPPSPTDVAKSNTAVCVCNESVRTVIVPSEKVVDLLSNRNNHTGPSHRTEEVRYGVSEQTSLKTVSRTTSPPLSIPTTHLIHQPAGSRSLEPSGILLKSGNYSGHSDGISSSRSQAVEAPSVSVNHYSPNSHQHIDWKNYKTYKEYIDNRRLHIGCRTIQERLDSLRAASQSTTDYNQVVPNRTTLQGRRRSTSHDRVPQSVQIRQRSVSQERLEDSVLMKYCPRSASQGALTSPSVSFSNHRTRSWDYIEGQDETLENVNSGTPIPDSNGEKKQTYKWSGFTEQDDRRGICERPRQQEIHKSFRGSNFTVAPSVVNSDNRRMSGRGVGSVSQFKKIPPDLKTLQSNRNFQTTCGMSLPRGISQDRSPLVKVRSNSLKAPSTHVTKPSFSQKSFVSIKDQRPVNHLHQNSLLNQQTWVRTDSAPDQQVETGKSPSLSGASAKPAPQSSENAGTSDLELPVSQRNQDLSLQEAETEQSDTLDNKEAVILREKPPSGRQTPQPLRHQSYILAVNDQETGSDTTCWLPNDARREVHIKRMEERKASSTSPPGDSLASIPFIDEPTSPSIDHDIAHIPASAVISASTSQVPSIATVPPCLTTSAPLIRRQLSHDHESVGPPSLDAQPNSKTERSKSYDEGLDDYREDAKLSFKHVSSLKGIKIADSQKSSEDSGSRKDSSSEVFSDAAKEGWLHFRPLVTDKGKRVGGSIRPWKQMYVVLRGHSLYLYKDKREQTTPSEEEQPISVNACLIDISYSETKRKNVFRLTTSDCECLFQAEDRDDMLAWIKTIQESSNLNEEDTGVTNRDLISRRIKEYNNLMSKAEQLPKTPRQSLSIRQTLLGAKSEPKTQSPHSPKEESERKLLSKDDTSPPKDKGTWRKGIPSIMRKTFEKKPTATGTFGVRLDDCPPAHTNRYIPLIVDICCKLVEERGLEYTGIYRVPGNNAAISSMQEELNKGMADIDIQDDKWRDLNVISSLLKSFFRKLPEPLFTNDKYADFIEANRKEDPLDRLKTLKRLIHDLPEHHYETLKFLSAHLKTVAENSEKNKMEPRNLAIVFGPTLVRTSEDNMTHMVTHMPDQYKIVETLIQHHDWFFTEEGAEEPLTTVQEESTVDSQPVPNIDHLLTNIGRTGVSPGDVSDSATSDSTKSKGSWGSGKDQYSRELLVSSIFAAASRKRKKPKEKAQPSSSEDELDNVFFKKENVEQCHNDTKEESKKESETLGRKQKIIIAKENSTRKDPSTTKDEKISLGKESTPSEEPSPPHNSKHNKSPTLSCRFAILKESPRSLLAQKSSHLEETGSDSGTLLSTSSQASLARFSMKKSTSPETKHSEFLANVSTITSDYSTTSSATYLTSLDSSRLSPEVQSVAESKGDEADDERSELISEGRPVETDSESEFPVFPTALTSERLFRGKLQEVTKSSRRNSEGSELSCTEGSLTSSLDSRRQLFSSHKLIECDTLSRKKSARFKSDSGSLGDAKNEKEAPSLTKVFDVMKKGKSTGSLLTPTRGESEKQEPTWKTKIADRLKLRPRAPADDMFGVGNHKVNAETAKRKSIRRRHTLGGHRDATEISVLNFWKVHEQSGERESELSAVNRLKPKCSAQDLSISDWLARERLRTSTSDLSRGEIGDPQTENPSTREIATTDTPLSLHCNTGSSSSTLASTNRPLLSIPPQSPDQINGESFQNVSKNASSAANAQPHKLSETPGSKAEFHPCL

The first assay covers variants of B1. To be noted: with arf1_mouse Arf1, P84078.
Chain of arf1_mouse Arf1, P84078 (P84078 whole entry): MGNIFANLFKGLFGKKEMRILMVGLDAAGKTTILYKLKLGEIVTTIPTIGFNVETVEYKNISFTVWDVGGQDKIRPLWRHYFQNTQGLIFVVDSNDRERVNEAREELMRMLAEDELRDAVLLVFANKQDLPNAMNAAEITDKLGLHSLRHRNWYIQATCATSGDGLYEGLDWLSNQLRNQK
As for I1054A, the “effect of a mutation on the interaction” value is reported as “decreasing interaction”.

Variants of B1 are the subject of the next assay. To be noted: with arf1_mouse Arf1, P84078. This is another data set of the same source.
Regarding Y1000A, the “effect of a mutation on the interaction” value is “decreasing interaction”.
